Columns and labels:
[1] = target: high-sensitive (HS) (α4)2(β2)3 nicotinic acetylcholine receptor (human) (UniProt P43681)
[2] = target: low-sensitive (LS) (α4)3(β2)2 nicotinic acetylcholine receptor (human) (UniProt P43681)
[3] = target: α3β2 nicotinic acetylcholine receptor (human) (UniProt P32297)

Measured: Maximal inhibition of ACh-evoked currents, % (single level fitted for all three datasets), two-electrode voltage clamp in X. laevis oocytes

Sequence of UniProt P32297 (P32297 32-505, chain 1 of 2): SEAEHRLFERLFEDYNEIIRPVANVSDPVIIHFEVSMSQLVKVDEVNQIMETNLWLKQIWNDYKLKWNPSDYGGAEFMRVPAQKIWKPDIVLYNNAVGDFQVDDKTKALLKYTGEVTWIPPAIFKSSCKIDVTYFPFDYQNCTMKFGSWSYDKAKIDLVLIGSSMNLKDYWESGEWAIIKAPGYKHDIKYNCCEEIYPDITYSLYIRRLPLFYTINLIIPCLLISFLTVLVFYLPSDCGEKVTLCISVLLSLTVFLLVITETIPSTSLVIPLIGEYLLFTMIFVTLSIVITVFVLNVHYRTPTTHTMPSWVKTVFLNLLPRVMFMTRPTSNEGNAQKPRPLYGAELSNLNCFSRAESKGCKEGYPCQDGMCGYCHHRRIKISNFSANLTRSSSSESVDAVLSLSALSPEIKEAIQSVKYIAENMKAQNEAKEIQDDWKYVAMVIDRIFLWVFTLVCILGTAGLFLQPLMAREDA
Sequence of UniProt P32297 (P17787 26-502, chain 2 of 2, further chain): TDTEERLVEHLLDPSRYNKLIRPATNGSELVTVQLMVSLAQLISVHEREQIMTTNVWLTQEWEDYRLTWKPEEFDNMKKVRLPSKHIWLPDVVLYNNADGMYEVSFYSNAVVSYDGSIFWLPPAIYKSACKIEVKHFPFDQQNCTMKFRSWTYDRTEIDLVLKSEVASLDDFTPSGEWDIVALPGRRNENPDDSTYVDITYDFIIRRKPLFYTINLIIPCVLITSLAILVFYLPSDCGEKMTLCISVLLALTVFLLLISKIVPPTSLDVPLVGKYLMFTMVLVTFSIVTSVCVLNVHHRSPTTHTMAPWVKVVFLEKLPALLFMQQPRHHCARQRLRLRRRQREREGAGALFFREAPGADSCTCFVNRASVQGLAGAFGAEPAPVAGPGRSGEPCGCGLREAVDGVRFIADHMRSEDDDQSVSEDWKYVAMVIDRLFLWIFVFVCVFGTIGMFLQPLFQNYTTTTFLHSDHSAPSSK

water-soluble recombinant analog of human prostate stem cell antigen (ws-PSCA) (domain or fragment)
31%: all assays above
